# Source: patent US8247376B2, “NGAL for reduction and amelioration of ischemic and nephrotoxic injuries” (The Trustees of Columbia University, priority 2004, dated 2012)
# “Also recorded” adds a separate entry of the source.
# What was measured:
# [1] = Distribution and radioautography of ^55Fe after ^55Fe:Sid:NGAL injection; assay type: in vivo, mice; settings: non-protein bound ^55Fe citrate
# [2] = test system: mouse model of ATN or ischemia/reperfusion injury; test: Mouse model of ATN (30 min clamp, contralateral nephrectomy): plasma creatinine; assay type: in vivo, mice; settings: mice, 30 minutes of ischemia; 10 μg protein or single dose, 15 min prior to ischemia
# Procedure: Male C57BL/6 mice (20-25 gr; Charles River) were anesthetized with intraperitoneal pentobarbital (50 mg/kg) and placed on a heating pad under a warming light to maintain 37© core body temperature. Kidneys were exposed through an abdominal section and the right kidney was either removed or its vascular pedicle and ureter ligated. The vascular pedicle of the left kidney or both kidneys was clamped by a microaneurysm clip (Kent Scientific) for 30 minutes after right nephrectomy. This period of ischemia generated reproducible renal injury but minimized mortality. During the procedure, PBS (0.5 ml) was used to dampen the peritoneum. The animal was closed with 5-0 Nylon. Saline, NGAL, retinol-loaded retinol binding protein (RBP), enterochelin, or desferroxamine mesylate (DFO) were injected into the peritoneum or subcutaneously 15 min. prior to ischemia or 1-2 hr after reperfusion.
# After 6 or 24 hr of reperfusion, heparinized plasma, urine and kidney samples were obtained to measure NGAL (polyclonal 1:500), Heme oxygenase-1 (Stressgen, 1:2000), E-cadherin (BD Transduction Labs, 1:2000), N-cadherin (BD Transduction Labs, 1:3000) and GAPDH (Chemicon International, 1:3000) using immunoblots. Plasma was also used for creatinine and blood urea nitrogen colorimetric assays. Sagittal sections of the kidney were fixed in 4% formalin, or were snap frozen for mRNA and protein analysis. Paraffin-embedded sections (5 μm) were stained with hematoxylin-eosin or by an in situ kit (Fluorescein-TUNEL, Roche) for apoptotic nuclei or for total nuclei (Toprol, Molecular Probes). For cell proliferation analysis, BrdU was injected into the peritoneum 1 hour before sacrifice, and cryostat sections were stained with anti-BrdU (Roche) according to the manufacturer.
# NGAL = NGAL (Homo sapiens, UniProt P80188); settings: read-out: affinity of siderophore binding to NGAL (calyx); cited from earlier work
# [3] = previously reported; cited from earlier work
# [4] = NGAL trafficking after intraperitoneal or subcutaneous injection; assay type: in vivo, mice
# From the text: Recombinant human and mouse GST-NGAL were expressed in BL21 or XL1-Blue strains of E. coli (Stratagene) with additional ferric sulfate (50 Micro Molar, Sigma-Aldrich Co.). NGAL was isolated using Glutathione Sepharose 4B beads (Amersham Biosciences), eluted by thrombin cleavage (Sigma-Aldrich Co.; St. Louis, Mo.) and then further purified by gel filtration (Superdex75, SMART system, Amersham Biosciences) and examined by Coomassie gels (Biorad). BL-21 derived NGAL was loaded with iron free or iron saturated enterochelin, a siderophore (EMC Microcollections) using a 5 fold molar excess. Unbound siderophore (0.7 KD) was removed by washing (Microcon YM-10) with PBS. To produce ^55Fe or gallium (Ga) loaded NGAL we incubated the iron-free enterochelin NGAL complex with equimolar ^55Fe (18mCi) or Ga in NaCl (150 mM) Hepes (20 mM; pH 7.4) and the complex was washed 3 times (10K filter). Iodobeads (Pierce) were used to label NGAL with ^125I and unincorporated ^125I was removed by gel filtration (PD-10 column) followed by extensive dialysis (7 kDa cut off membrane, Pierce) against PBS. Alexa-568 and fluorescein isothiocyanate (Molecular Probes) was coupled to NGAL, according to the manufacturer, and then extensively dialyzed. Protein concentration was determined by Coomassie gels in comparison with bovine serum albumin standard.
# To detect delivery of NGAL to the kidney rNGAL (10 or 100 μg), Alexa 568-NGAL (100 μg), ^125I-NGAL ([…], 2×10^6 cpm), or ^55Fe loaded enterochelin-NGAL (10 μg, 1×10^6 cpm) was injected into the peritoneum and blood, urine, kidney and liver samples were obtained. NGAL was detected by immunoblot. Alexa-568 NGAL was detected by confocal microscopy (LSM Meta Detector) and NGAL mediated iron trafficking was detected by scintillation counter and by light microscopic radioautography of Epon embedded kidneys. Slides were exposed to emulsion (Polyscience) for 1 week and then developed with Microdol and counterstained with Toluidine blue. To detect lysosomes in the proximal tubule, mice were injected with Fluorescein Dextran (46 kD; 0.5 mg; Sigma) 24 hours before Alexa 568 NGAL injections. LAMP1 (Santa Cruz) was detected in cryostat sections of 4% paraformaldehyde fixed kidneys.
molecule,measurement,setting,value
O=C([O-])CC(O)(CC(=O)[O-])C(=O)[O-].[Fe+3] [^55Fe citrate],iron recovered in the kidney,[1],1.5%
"O=C(N[C@H]1COC(=O)[C@@H](NC(=O)c2cccc(O)c2O)COC(=O)[C@@H](NC(=O)c2cccc(O)c2O)COC1=O)c1cccc(O)c1O [Sid, enterochelin, reference compound]","protection against ATN (creatinine, FIG. 17A)",[2],failed to protect against ATN; also recorded: ineffective
same,Kd,NGAL,0.4 nM
"human NGAL: human NGAL of previously reported clearance data (protein, UniProt P80188 21-198, looked up) Neutrophil …: QDSTSDLIPAPPLSKVPLQQNFQDNQFQGKWYVVGLAGNAILREDKDPQKMYATIYELKEDKSYNVTSVLFRKKKCDYWIRTFVPGCQPGEFTLGNIKSYPGLTSYLVRVVSTNYNQHAMVFFKKVSQNREYFKITLYGRTKELTSELKENFIRFSKSLGLPENHIVFPVPIDQCIDG",kidney versus liver level per mg protein,[3],12 fold
same,t1/2 of clearance from the circulation,[3],10 min
"[^125I]-NGAL: NGAL labelled with ^125I using Iodobeads (protein, UniProt P11672 21-200, looked up, 125I label, NGAL labelled with ^125I using Iodobeads) Neutrophil …: QDSTQNLIPAPSLLTVPLQPDFRSDQFRGRWYVVGLAGNAVQKKTEGSFTMYSTIYELQENNSYNVTSILVRDQDQGCRYWIRTFVPSSRAGQFTLGNMHRYPQVQSYNVQVATTDYNQFAMVFFRKTSENKQYFKITLYGRTKELSPELKERFTRFAKSLGLKDDNIIFSVPTDQCIDN","TCA precipitable fraction, kidney-localized protein",[4]; kidney,70%
same,kidney versus liver content per mg protein,[4]; one hour time-point,13 fold
same,TCA precipitable fraction,[4]; plasma,35%
same,TCA precipitable fraction,[4]; urine,20%
